# B1: BMP-3: member of the transforming growth factor beta family, known to enhance bone differentiation (protein, UniProt P12645 363-472, looked up)
# Bone morphogenetic protein 3: QWIEPRNCARRYLKVDFADIGWSEWIISPKSFDAYYCSGACQFPMPKSLKPSNHATIQSIVRAVGVVPGIPEPCCVPEKMSSLSILFFDENKNVVLKVYPNMTVESCACR
# B2: PDGF-BB: platelet derived growth factor, homodimer, subunit B (protein, UniProt P01127 82-190, looked up)
# Platelet-derived growth …: SLGSLTIAEPAMIAECKTRTEVFEISRRLIDRTNANFLVWPPCVEVQRCSGCCNNRNVQCRPTQVQLRPVQVRKIEIVRKKPIFKKATVTLEDHLACKCETVAAARPVT
# B3: HB-EGF: heparin-binding EGF-like growth factor (protein, UniProt Q99075 63-148, looked up)
# Heparin-binding EGF-like …: DLQEADLDLLRVTLSSKPQALATPNKEEHGKRKKKGKGLGKKRDPCLRKYKDFCIHGECKYVKELRAPSCICHPGYHGERCHGLSL
# Tests used:
# mesenchymal stem cells [1] = assay: Mesenchymal stem cell culture with growth factors with or without nicotinamide, cell counts; format: cell-based; conditions: growth factor 10 or 50 ng/ml with 5 mM NAM; three or four passages
# Method: Isolation: Bone marrow derived and adipose tissue derived mesenchymal cells were isolated based on their plastic adherence potential in expansion medium containing: High glucose DMEM and 10% Fetal Bovine Serum (FBS, Hyclone, Logan, Utah, USA) supplemented with 0.05 mg/ml Gentamicin (Sigma) and 2 mM L-glutamine (Biological Industries, Israel). Cells were allowed to adhere for 3-4 days and non-adherent cells were washed out with medium changes. The medium was further exchanged with fresh medium every 3-4 days.
# Maintenance and expansion: Once adherent cells reached approximately 80-90% confluency, they were detached with 0.25% trypsin-EDTA (Sigma), washed twice in DMEM and 10% Fetal Bovine Serum, with centrifugation, 400 g, 5 minutes, and re-plated at a 1:2 to 1:1000 dilution under the same culture conditions.
# Measurement of number of cells in culture: Cell number was measured using Cedex Automated Cell Counter (Innovatis). The cells were diluted 1:2 in Trypan Blue (Sigma) and cell number was measured automatically under microscope.
# Treatment of mesenchymal cultures with nicotinamide: Mesenchymal cultures were initiated as described above, and supplemented with nicotinamide 1-15 mM alone, or in combination with growth factors or growth factors alone, incubated at 37° C. in a humidified atmosphere of 5% CO2 in air. At each passage and at each medium exchange, the cultures were supplemented with mesenchymal medium, nicotinamide and growth factors.
# Mesenchymal stem cells were selected and cultured in the presence of particular growth factors (basic fibroblast growth factor—bFGF, heparin binding epidermal growth factor—HB-EGF, fibroblast growth factor 4—FGF-4 and platelet derived growth factor, homodimer, subunit B, PDGF-BB) in the presence and absence of nicotinamide for three or four passages and the number and size of the cells was calculated.
# Two concentrations (10 and 50 ng/ml) of each one of the following factors were examined.
# In addition, the influence of the combination: 5 mM NAM+50 ng/ml FGF4+50 ng/ml PDGF-BB was examined in comparison to an individual supplement.
# MSCs = conditions: Tamama et al. 2010; cited from earlier work
# MSC = conditions: Stewart et al. 2010; cited from earlier work
# mesenchymal stem cells [2] = assay: Percent of MSC (CD105+CD45−) analyzed by FACS; format: cell-based; conditions: FGF4 or PDGF-BB 50 ng/ml, NAM 5 mM
# Method: Four different batches of MSC cultures were treated with FGF4 (50 ng/ml), NAM (5 mM) or a combination of FGF4+NAM. Percent of MSC (CD105+CD45−) was analyzed by FACS. FIGS. 7A-D are graphs illustrating that MSC cultures treated with PDGF-BB or a combination of PDGF-BB+NAM comprise a higher fraction of cells other than MSCs that contaminates the cultures as compared to MSC cultured in the absence of PDGF-BB. Four different batches of MSC cultures were treated with PDGF-BB (50 ng/ml), NAM (5 mM) or a combination of PDGF-BB+NAM. Percent of MSC (CD105+CD45−) was analyzed by FACS. Surface antigen analysis: At different time points the cells were detached with 0.25% trypsin-EDTA. […] The cells were then washed in the above buffer and analyzed using a FACScalibur® flow cytometer (Becton Dickinson). […] Emission of 10000 cells was measured using logarithmic amplification, and analyzed using the CellQuest software (Becton Dickinson). Cells stained with FITC- and PE-conjugated isotype control antibodies were used to determine background fluorescence.
Molecule,effect on the ability of nicotinamide to increase proliferation of mesenchymal stem cells (mesenchymal stem cells [1]),also measured
"basic FGF: basic fibroblast growth factor (bFGF, FGF2)",negative effect,–
EGF: Epidermal growth factor,–,increase in number of colony-forming units (MSCs): 25%
B1,–,increase in MSC proliferation (MSC): threefold
B2,inconsistent effect,Percent of MSC (CD105+CD45−) in culture (mesenchymal stem cells [2]): contaminated with a higher fraction of cells other than MSCs
B3,negative effect,–
